Measurements as given in article PMC7794784, “A Very Bright Far-Red Bioluminescence Emitting Combination Based on Engineered Railroad Worm Luciferase and 6′-Amino-Analogs for Bioimaging Purposes” (International Journal of Molecular Sciences, 2020).
Substitutions are numbered along the chain they refer to. In names and notes the source's numbering stands.

B1: PxRE luciferase (P. hirtus red-emitting luciferase, RE WT) (Phrixothrix hirtus) (protein)
chain: MEEENIVNGDRPRDLVFPGTAGLQLYQSLYKYSYITDGIIDAHTNEVISYAQIFETSCRLAVSLEKYGLDHNNVVAICSENNIHFFGPLIAALYQGIPMATSNDMYTEREMIGHLNISKPCLMFCSKKSLPFILKVQKHLDFLKKVIVIDSMYDINGVECVFSFVSRYTDHAFDPVKFNPKEFDPLERTALIMTSSGTTGLPKGVVISHRSITIRFVHSSDPIYGTRIAPDTSILAIAPFHHAFGLFTALAYFPVGLKIVMVKKFEGEFFLKTIQNYKIASIVVPPPIMVYLAKSPLVDEYNLSSLTEIACGGSPLGRDIADKVAKRLKVHGILQGYGLTETCSALILSPNDRELKKGAIGTPMPYVQVKVIDINTGKALGPREKGEICFKSQMLMKGYHNNPQATRDALDKDGWLHTGDLGYYDEDRFIYVVDRLKELIKYKGYQVAPAELENLLLQHPNISDAGVIGIPDEFAGQLPSACVVLEPGKTMTEKEVQDYIAELVTTTKHLRGGVVFIDSIPKGPTGKLMRNELRAIFAREQAKSKL
B2: PxRE luciferase (P. hirtus red-emitting luciferase, RE WT) (Phrixothrix hirtus; R215K) (protein)
chain: B1 chain with R215K

Assays:
purified protein = substrate: Nc1ncnc2c1ncn2[C@@H]1O[C@H](COP(=O)(O)OP(=O)(O)OP(=O)(O)O)[C@@H](O)[C@H]1O; assay: purified protein; settings: co-substrate D-luciferin, 4 mM MgSO4, 0.10 M Tris-HCl pH 8.0, 22 °C
[1] = substrate: O=C(O)[C@H]1CSC(c2nc3ccc(N4CCCC4)cc3s2)=N1; assay: bioluminescence peak intensity (I0), Lineweaver-Burk; type: biochemical, Phrixothrix hirtus; settings: 2 mM ATP, 4 mM MgSO4, 0.10 M Tris-HCl pH 8.0, 22 °C, kcat in relative luminometer counts
Description: (§1) bioluminescence peak intensity (I0), Lineweaver-Burk on PxRE luciferase (P. hirtus red-emitting luciferase, RE WT)

[2] = substrate: O=C(O)[C@H]1CSC(c2nc3ccc(O)cc3s2)=N1; assay: as above; type: biochemical, Phrixothrix hirtus; settings: 2 mM ATP, 4 mM MgSO4, 0.10 M Tris-HCl pH 8.0, 22 °C, kcat in relative luminometer counts
Description: as §1

Row | Protein | Km (purified protein) [µM] | Km [1] [µM] | Km [2] [µM]
1 | B1 | 230 | 0.5 | 7
2 | B2 | 50 | 1.0 | 40
